Measured values: the supplement of paper PMC10219994
± gives the standard deviation of the averaged measurements.

B1: library; a variant is named by its letters at N, in order (parent)
chain: GAGACCGCAACTGAAAAGTTGTGGNNNNNATAGTGAGTCGCTGCCTGCAAAGACACAACT

Variants of: B1
Test: ligation selection enrichment (abundance after / before one-round selection) (fold); higher = more template-directed ligation activity
Details: with T7Psub CACGGAUGCUAAUACGACUCACUAUA; MgCl2 25 mM; 42 °C; 4 h; pH 8.5
Protocol: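 Lib-N5 ligase ribozyme library: five randomized core nucleotides (including the GGA motif of N8-1) within the fixed N8-1 ribozyme flanks, transcribed by T7 RNA polymerase with a 5'-triphosphate. The library (0.75 uM) was reacted with substrate T7Psub (6 uM) in 50 mM EPPS pH 8.5 with 25 mM MgCl2 at 42 C for 4 h. Ligated products were PAGE-purified, reverse transcribed and MiSeq sequenced; enrichment = abundance after selection / abundance before selection, with two independent replicates. The full transcript is built from the printed template flanks.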

Variant	ligation selection enrichment
GAGACCGCAACTGAAAAGTTGTGGAAAAAATAGTGAGTCGCTGCCTGCAAAGACACAACT	0.191 ± 0.076
GAGACCGCAACTGAAAAGTTGTGGTAAAAATAGTGAGTCGCTGCCTGCAAAGACACAACT	0.145 ± 0.025
GAGACCGCAACTGAAAAGTTGTGGGAAAAATAGTGAGTCGCTGCCTGCAAAGACACAACT	0.135 ± 0.02
GAGACCGCAACTGAAAAGTTGTGGCAAAAATAGTGAGTCGCTGCCTGCAAAGACACAACT	0.131 ± 0.011
GAGACCGCAACTGAAAAGTTGTGGTAAACATAGTGAGTCGCTGCCTGCAAAGACACAACT	0.176 ± 0.054
GAGACCGCAACTGAAAAGTTGTGGAAAACATAGTGAGTCGCTGCCTGCAAAGACACAACT	0.17 ± 0.018
GAGACCGCAACTGAAAAGTTGTGGGAAACATAGTGAGTCGCTGCCTGCAAAGACACAACT	0.146 ± 0.044
GAGACCGCAACTGAAAAGTTGTGGCAAACATAGTGAGTCGCTGCCTGCAAAGACACAACT	0.135 ± 0.028
GAGACCGCAACTGAAAAGTTGTGGTAAAGATAGTGAGTCGCTGCCTGCAAAGACACAACT	0.553 ± 0.13
GAGACCGCAACTGAAAAGTTGTGGGAAAGATAGTGAGTCGCTGCCTGCAAAGACACAACT	0.328 ± 0.021
GAGACCGCAACTGAAAAGTTGTGGAAAAGATAGTGAGTCGCTGCCTGCAAAGACACAACT	0.226 ± 0.025
GAGACCGCAACTGAAAAGTTGTGGCAAAGATAGTGAGTCGCTGCCTGCAAAGACACAACT	0.162 ± 0.03
GAGACCGCAACTGAAAAGTTGTGGTAAATATAGTGAGTCGCTGCCTGCAAAGACACAACT	0.784 ± 0.063
GAGACCGCAACTGAAAAGTTGTGGCAAATATAGTGAGTCGCTGCCTGCAAAGACACAACT	0.595 ± 0.18
GAGACCGCAACTGAAAAGTTGTGGGAAATATAGTGAGTCGCTGCCTGCAAAGACACAACT	0.55 ± 0.2
GAGACCGCAACTGAAAAGTTGTGGAAAATATAGTGAGTCGCTGCCTGCAAAGACACAACT	0.461 ± 0.12
GAGACCGCAACTGAAAAGTTGTGGGAACAATAGTGAGTCGCTGCCTGCAAAGACACAACT	0.191 ± 0.024
GAGACCGCAACTGAAAAGTTGTGGTAACAATAGTGAGTCGCTGCCTGCAAAGACACAACT	0.186 ± 0.043
GAGACCGCAACTGAAAAGTTGTGGAAACAATAGTGAGTCGCTGCCTGCAAAGACACAACT	0.177 ± 0.013
GAGACCGCAACTGAAAAGTTGTGGCAACAATAGTGAGTCGCTGCCTGCAAAGACACAACT	0.1345 ± 0.00036
GAGACCGCAACTGAAAAGTTGTGGGAACCATAGTGAGTCGCTGCCTGCAAAGACACAACT	0.225 ± 0.032
GAGACCGCAACTGAAAAGTTGTGGAAACCATAGTGAGTCGCTGCCTGCAAAGACACAACT	0.196 ± 0.0049

Variant	ligation selection enrichment
GAGACCGCAACTGAAAAGTTGTGGTAACCATAGTGAGTCGCTGCCTGCAAAGACACAACT	0.173 ± 0.011
GAGACCGCAACTGAAAAGTTGTGGCAACCATAGTGAGTCGCTGCCTGCAAAGACACAACT	0.126 ± 0.0056
GAGACCGCAACTGAAAAGTTGTGGTAACGATAGTGAGTCGCTGCCTGCAAAGACACAACT	0.8672 ± 0.0053
GAGACCGCAACTGAAAAGTTGTGGAAACGATAGTGAGTCGCTGCCTGCAAAGACACAACT	0.742 ± 0.064
GAGACCGCAACTGAAAAGTTGTGGGAACGATAGTGAGTCGCTGCCTGCAAAGACACAACT	0.626 ± 0.017
GAGACCGCAACTGAAAAGTTGTGGCAACGATAGTGAGTCGCTGCCTGCAAAGACACAACT	0.449 ± 0.066
GAGACCGCAACTGAAAAGTTGTGGAAACTATAGTGAGTCGCTGCCTGCAAAGACACAACT	1.21 ± 0.29
GAGACCGCAACTGAAAAGTTGTGGTAACTATAGTGAGTCGCTGCCTGCAAAGACACAACT	0.925 ± 0.31
GAGACCGCAACTGAAAAGTTGTGGGAACTATAGTGAGTCGCTGCCTGCAAAGACACAACT	0.882 ± 0.31
GAGACCGCAACTGAAAAGTTGTGGCAACTATAGTGAGTCGCTGCCTGCAAAGACACAACT	0.615 ± 0.11
GAGACCGCAACTGAAAAGTTGTGGTAAGAATAGTGAGTCGCTGCCTGCAAAGACACAACT	0.977 ± 0.16
GAGACCGCAACTGAAAAGTTGTGGGAAGAATAGTGAGTCGCTGCCTGCAAAGACACAACT	0.306 ± 0.024
GAGACCGCAACTGAAAAGTTGTGGAAAGAATAGTGAGTCGCTGCCTGCAAAGACACAACT	0.256 ± 0.0097
GAGACCGCAACTGAAAAGTTGTGGCAAGAATAGTGAGTCGCTGCCTGCAAAGACACAACT	0.182 ± 0.036
GAGACCGCAACTGAAAAGTTGTGGAAAGCATAGTGAGTCGCTGCCTGCAAAGACACAACT	0.199 ± 0.038
GAGACCGCAACTGAAAAGTTGTGGGAAGCATAGTGAGTCGCTGCCTGCAAAGACACAACT	0.167 ± 0.033
GAGACCGCAACTGAAAAGTTGTGGTAAGCATAGTGAGTCGCTGCCTGCAAAGACACAACT	0.165 ± 0.016
GAGACCGCAACTGAAAAGTTGTGGCAAGCATAGTGAGTCGCTGCCTGCAAAGACACAACT	0.137 ± 0.042
GAGACCGCAACTGAAAAGTTGTGGTAAGGATAGTGAGTCGCTGCCTGCAAAGACACAACT	0.733 ± 0.15
GAGACCGCAACTGAAAAGTTGTGGGAAGGATAGTGAGTCGCTGCCTGCAAAGACACAACT	0.571 ± 0.21
GAGACCGCAACTGAAAAGTTGTGGAAAGGATAGTGAGTCGCTGCCTGCAAAGACACAACT	0.44 ± 0.026
GAGACCGCAACTGAAAAGTTGTGGCAAGGATAGTGAGTCGCTGCCTGCAAAGACACAACT	0.2 ± 0.024
